Measured values taken from patent US20150344570A1 (published 2015).

T1: FcγRIIb (human, UniProt P31994 43-217)
T1 construct: extracellular domain; also called 2b; not shown: His tag at the C terminus
T1 sequence (looked up): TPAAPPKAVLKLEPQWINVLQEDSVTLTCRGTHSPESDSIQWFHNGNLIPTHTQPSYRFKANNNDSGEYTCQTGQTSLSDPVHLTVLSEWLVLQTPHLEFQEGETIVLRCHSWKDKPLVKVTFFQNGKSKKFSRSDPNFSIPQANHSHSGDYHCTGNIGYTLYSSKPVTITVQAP

T2: FcγRIIa H (human, UniProt P12318 34-217)
T2 construct: extracellular domain; also called FcγRIIa type H; 2aH; not shown: His tag at the C terminus
T2 sequence (looked up): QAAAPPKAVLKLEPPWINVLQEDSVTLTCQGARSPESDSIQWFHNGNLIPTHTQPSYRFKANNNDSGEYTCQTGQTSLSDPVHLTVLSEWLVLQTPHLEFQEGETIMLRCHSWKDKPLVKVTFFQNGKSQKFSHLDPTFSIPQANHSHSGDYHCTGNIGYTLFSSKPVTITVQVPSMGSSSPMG


Assays:
[1] = molecular target: T1, FcγRIIb; experiment: SPR (Biacore), antibody captured, FcγR as analyte; binding relative to GpH7-A5/GpH7-B3/GpL16-k0 = 100
Protocol: (§1) The heterodimerized antibodies He Abs in which one of the H chains was introduced with an alteration were assayed for their binding activities to each activating FcγR and inhibitory FcγR according to the method described in Example 4. […] The activating FcγRs in FIGS. 26, 27, 28, and 29 are FcγRIa, FcγRIIa (R), FcγRIIa (H), and FcγRIIIa, respectively.
(§2) Analysis of interaction between objective antibody and the FcγR was carried out using Biacore T100 (GE Healthcare). HBS-EP+ (GE Healthcare) was used as the running buffer, and the measurement temperature was set to 25° C. Chips produced by immobilizing the antigen peptide by the amine coupling method to a Series S Sencor Chip CM5 (GE Healthcare), or alternatively, chips produced by allowing preliminarily biotinylated antigen peptides to interact with and immobilize onto a Series S Sensor Chip SA (certified) (GE Healthcare) were used. Antibodies of interest were captured onto an antigen peptide-immobilized chip, and allowed to interact to each FcγR diluted with running buffer. To regenerate and repeatedly use the chip, the antibodies captured on the chip were washed off by reacting 10 mM glycine-HCl, pH 1.5.

[2] = molecular target: T2, FcγRIIa H; experiment: as above
Protocol: as §1, §2

Binder | He/Con_2b [1] | He/Con_2aH [2]
GpH7-A5/GpH7-B3 variant G236_20W/GpL16-k0 (antibody, human IgG1, kappa, Heterodimerized IgG1; mutation in the GpH7-B3 chain only; also called He Ab) heavy 1: not shown heavy 2: not shown light: DIVMTQSPLSLPVTPGEPASISCQASESLVHSNRNTYLHWYLQKPGQSPQLLIYKVSNRFSGVPDRFSGSGSGTDFTLKISRVEAEDVGVYYCSQNTHVPPTFGQGTKVEIERTVAAPSVFIFPPSDEQLKSGTASVVCLLNNFYPREAKVQWKVDNALQSGNSQESVTEQDSKDSTYSLSSTLTLSKADYEKHKVYACEVTHQGLSSPVTKSFNRGEC | 58.2 % of control | 147 % of control
GpH7-A5/GpH7-B3 variant H268_04F/GpL16-k0 (antibody, human IgG1, kappa, Heterodimerized IgG1; mutation in the GpH7-B3 chain only; also called He Ab) heavy 1: not shown heavy 2: not shown light: DIVMTQSPLSLPVTPGEPASISCQASESLVHSNRNTYLHWYLQKPGQSPQLLIYKVSNRFSGVPDRFSGSGSGTDFTLKISRVEAEDVGVYYCSQNTHVPPTFGQGTKVEIERTVAAPSVFIFPPSDEQLKSGTASVVCLLNNFYPREAKVQWKVDNALQSGNSQESVTEQDSKDSTYSLSSTLTLSKADYEKHKVYACEVTHQGLSSPVTKSFNRGEC | 89.6 % of control | 111 % of control
GpH7-A5/GpH7-B3 variant I332_03V/GpL16-k0 (antibody, human IgG1, kappa, Heterodimerized IgG1; mutation in the GpH7-B3 chain only; also called He Ab) heavy 1: not shown heavy 2: not shown light: DIVMTQSPLSLPVTPGEPASISCQASESLVHSNRNTYLHWYLQKPGQSPQLLIYKVSNRFSGVPDRFSGSGSGTDFTLKISRVEAEDVGVYYCSQNTHVPPTFGQGTKVEIERTVAAPSVFIFPPSDEQLKSGTASVVCLLNNFYPREAKVQWKVDNALQSGNSQESVTEQDSKDSTYSLSSTLTLSKADYEKHKVYACEVTHQGLSSPVTKSFNRGEC | 80.7 % of control | 105 % of control
GpH7-A5/GpH7-B3 variant I332_13S/GpL16-k0 (antibody, human IgG1, kappa, Heterodimerized IgG1; mutation in the GpH7-B3 chain only; also called He Ab) heavy 1: not shown heavy 2: not shown light: DIVMTQSPLSLPVTPGEPASISCQASESLVHSNRNTYLHWYLQKPGQSPQLLIYKVSNRFSGVPDRFSGSGSGTDFTLKISRVEAEDVGVYYCSQNTHVPPTFGQGTKVEIERTVAAPSVFIFPPSDEQLKSGTASVVCLLNNFYPREAKVQWKVDNALQSGNSQESVTEQDSKDSTYSLSSTLTLSKADYEKHKVYACEVTHQGLSSPVTKSFNRGEC | 98.4 % of control | 110 % of control
GpH7-A5/GpH7-B3 variant I332_16H/GpL16-k0 (antibody, human IgG1, kappa, Heterodimerized IgG1; mutation in the GpH7-B3 chain only; also called He Ab) heavy 1: not shown heavy 2: not shown light: DIVMTQSPLSLPVTPGEPASISCQASESLVHSNRNTYLHWYLQKPGQSPQLLIYKVSNRFSGVPDRFSGSGSGTDFTLKISRVEAEDVGVYYCSQNTHVPPTFGQGTKVEIERTVAAPSVFIFPPSDEQLKSGTASVVCLLNNFYPREAKVQWKVDNALQSGNSQESVTEQDSKDSTYSLSSTLTLSKADYEKHKVYACEVTHQGLSSPVTKSFNRGEC | 93 % of control | 109 % of control
GpH7-A5/GpH7-B3 variant I332_18N/GpL16-k0 (antibody, human IgG1, kappa, Heterodimerized IgG1; mutation in the GpH7-B3 chain only; also called He Ab) heavy 1: not shown heavy 2: not shown light: DIVMTQSPLSLPVTPGEPASISCQASESLVHSNRNTYLHWYLQKPGQSPQLLIYKVSNRFSGVPDRFSGSGSGTDFTLKISRVEAEDVGVYYCSQNTHVPPTFGQGTKVEIERTVAAPSVFIFPPSDEQLKSGTASVVCLLNNFYPREAKVQWKVDNALQSGNSQESVTEQDSKDSTYSLSSTLTLSKADYEKHKVYACEVTHQGLSSPVTKSFNRGEC | 89.9 % of control | 110 % of control
GpH7-A5/GpH7-B3 variant I332_19Q/GpL16-k0 (antibody, human IgG1, kappa, Heterodimerized IgG1; mutation in the GpH7-B3 chain only; also called He Ab) heavy 1: not shown heavy 2: not shown light: DIVMTQSPLSLPVTPGEPASISCQASESLVHSNRNTYLHWYLQKPGQSPQLLIYKVSNRFSGVPDRFSGSGSGTDFTLKISRVEAEDVGVYYCSQNTHVPPTFGQGTKVEIERTVAAPSVFIFPPSDEQLKSGTASVVCLLNNFYPREAKVQWKVDNALQSGNSQESVTEQDSKDSTYSLSSTLTLSKADYEKHKVYACEVTHQGLSSPVTKSFNRGEC | 94.3 % of control | 108 % of control
GpH7-A5/GpH7-B3 variant I336_03V/GpL16-k0 (antibody, human IgG1, kappa, Heterodimerized IgG1; mutation in the GpH7-B3 chain only; also called He Ab) heavy 1: not shown heavy 2: not shown light: DIVMTQSPLSLPVTPGEPASISCQASESLVHSNRNTYLHWYLQKPGQSPQLLIYKVSNRFSGVPDRFSGSGSGTDFTLKISRVEAEDVGVYYCSQNTHVPPTFGQGTKVEIERTVAAPSVFIFPPSDEQLKSGTASVVCLLNNFYPREAKVQWKVDNALQSGNSQESVTEQDSKDSTYSLSSTLTLSKADYEKHKVYACEVTHQGLSSPVTKSFNRGEC | 90.3 % of control | 102 % of control
